From PMC7078487

Target: soluble FixL (FixL_(118–495), missing the transmembrane domain) (Caulobacter crescentus)

Caulobacter crescentus FixT (natural protein)
accumulation of autophosphorylated FixL ([γ-32P]ATP, 30-minute time course; FixL 5 μM, FixJ(D55A) 20 μM, FixT 80 μM): 3 fold
